The values that follow come from article PMC9221443, “Peptidomimetics Based on C-Terminus of Blm10 Stimulate Human 20S Proteasome Activity and Promote Degradation of Proteins” (Biomolecules, 2022).

pEC50: −log10 of the molar value.

What all share (experiment): MST; NT-647-labelled protein kept constant (250 nM native and oxidized α-synuclein, 125 nM native enolase, 25 nM oxidized enolase), unlabelled h20S titrated in 16 dilutions from 1965 to 0.06 nM; 60 min (enolase) or 30 min (α-synuclein) at 22 °C; 20 mM Tris-HCl pH 7.2, 10% glycerol, 0.5 mM DTT, 0.5 mM NaN3, 0.125 mM EDTA, 100 mM NaCl; Hill fit, three independent experiments

One assay addresses oxidized α-synuclein (UniProt P37840).
The target in a further assay is α-synuclein (UniProt P37840).
Assay [1] concerns the target oxidized human enolase 2 (human) (UniProt P09104).

Regarding “human 20S proteasome (from UniProt P25786 4-241; P28066 8-241; P28072 35-239; Q99436 44-277; P28074 60-263) (complex)”, the values for the pEC50 (in the assay with oxidized α-synuclein; with α-synuclein; in assay [1]) were 7.17, 7.49 and 7.06, respectively.
